Values of other authors, collected in publication PMC4657025.
Where a chain is given by its changes, count along the chain named. Names and notes keep the numbering of the source. Read-outs that look alike come from different tables or passages of the source.

B1: Bacteriorhodopsin (BR) (Halobacterium salinarum) (protein)
chain: QAQITGRPEWIWLALGTALMGLGTLYFLVKGMGVSDPDAKKFYAITTLVPAIAFTMYLSMLLGYGLTMVPFGGEQNPIYWARYADWLFTTPLLLLDLALLVDADQGTILALVGADGIMIGTGLVGALTKVYSYRFVWWAISTAAMLYILYVLFFGFTSKAESMRPEVASTFKVLRNVTVVLWSAYPVVWLIGSEGAGIVPLNIETLLFMVLDVSAKVGFGLILLRSRAIFGEAEAPEPSAGDGAAATSD
B2: Bacteriorhodopsin R82Q mutant (Halobacterium salinarum; R82Q) (protein)
chain: B1 chain with R82Q

Tests used:
[1] = target: Asp85 (UniProt position 98, …)
[2] = target: Asp96 (UniProt position 109, …); assay: not stated in the text (title of ref 19 indicates FTIR spectroscopy); details: dark state (unphotolysed BR)
[3] = target: Asp85 (UniProt position 98, …); details: 150 mM NaCl

Protein	pKa [1]	pKa ([1]; 150 mM NaCl)	pKa [2]	pKa [3]
B1	2.7	2.5	>11	–
B2	–	–	–	7.2
